Values belong to the molecule of their own block, whether it stands above or below them. Numbered stars: 1 amine (or outer) side, 2 acyl side, 3 side chain; on linkers, the order of the positions; unused ones are H or OH. Peptide text beside a SMILES is read from it. * marks the point of attachment. AMC = Cc1cc(=O)oc2cc(N*)ccc12; Suc = O=C(CCC(=O)[*:2])[*:1]
Tests used:
[1] = target: human i20S purified from HEK293-EBNA cells (human) (UniProt P60900); assay: mass photometry; 20S at 120 nM titrated with PA200 (PA200:20S molar ratios from 0 to 15), Tris 50 mM pH 7.6, 2 h on ice, diluted six times to 20 nM 20S immediately before measurement; apparent KD from counts of free, singly- and doubly-capped 20S
[2] = target: human standard 20S proteasome (s20S) purchased from Enzo (human) (UniProt P60900); assay: as above
[3] = target: T1, i20S (20S immunoproteasome), beta5i site (Homo sapiens, UniProt P28062); assay: fluorogenic AMC release; format: biochemical; conditions: chymotrypsin-like (beta5i) site; 200 uM substrate, 1.5 nM 20S, pH 7.6, 37 C
T1 construct: gene PSMB8; with Proteasome subunit beta type-9; Proteasome subunit beta type-10; Proteasome subunit alpha type-6; Proteasome subunit alpha type-2; Proteasome subunit alpha type-4; Proteasome subunit alpha type-7; Proteasome subunit alpha type-5; Proteasome subunit alpha type-1; Proteasome subunit alpha type-3; Proteasome subunit beta type-3; Proteasome subunit beta type-2; Proteasome subunit beta type-1; Proteasome subunit beta type-4
T1 sequence (P28062 73-276): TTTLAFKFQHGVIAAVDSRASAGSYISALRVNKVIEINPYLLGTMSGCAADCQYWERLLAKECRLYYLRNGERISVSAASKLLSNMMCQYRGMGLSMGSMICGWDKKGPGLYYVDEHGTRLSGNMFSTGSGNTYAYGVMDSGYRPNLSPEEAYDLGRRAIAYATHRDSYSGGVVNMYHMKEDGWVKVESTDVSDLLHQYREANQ

[4] = target: T2, s20S (standard 20S proteasome), beta5 site (Homo sapiens, UniProt P28074); assay: fluorogenic AMC release; format: biochemical; conditions: chymotrypsin-like (beta5) site; 200 uM substrate, 1.5 nM 20S, pH 7.6, 37 C
T2 construct: gene PSMB5; with Proteasome subunit beta type-6; Proteasome subunit beta type-7; Proteasome subunit alpha type-6; Proteasome subunit alpha type-2; Proteasome subunit alpha type-4; Proteasome subunit alpha type-7; Proteasome subunit alpha type-5; Proteasome subunit alpha type-1; Proteasome subunit alpha type-3; Proteasome subunit beta type-3; Proteasome subunit beta type-2; Proteasome subunit beta type-1; Proteasome subunit beta type-4
T2 sequence (P28074 60-263): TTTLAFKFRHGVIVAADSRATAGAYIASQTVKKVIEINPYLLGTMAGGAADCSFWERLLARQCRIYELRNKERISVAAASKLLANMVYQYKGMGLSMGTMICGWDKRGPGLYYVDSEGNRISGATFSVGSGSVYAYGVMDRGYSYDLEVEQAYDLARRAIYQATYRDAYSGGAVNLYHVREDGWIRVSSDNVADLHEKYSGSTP

[5] = target: T3, recombinantly expressed and purified human PA200 (human), Q14997; assay: mass photometry; 20S at 120 nM titrated with PA200 (PA200:20S molar ratios from 0 to 15), Tris 50 mM pH 7.6, 2 h on ice, diluted six times to 20 nM 20S immediately before measurement; apparent KD from counts of free, singly- and doubly-capped 20S; conditions: remark: other sources report otherwise
T3 chain: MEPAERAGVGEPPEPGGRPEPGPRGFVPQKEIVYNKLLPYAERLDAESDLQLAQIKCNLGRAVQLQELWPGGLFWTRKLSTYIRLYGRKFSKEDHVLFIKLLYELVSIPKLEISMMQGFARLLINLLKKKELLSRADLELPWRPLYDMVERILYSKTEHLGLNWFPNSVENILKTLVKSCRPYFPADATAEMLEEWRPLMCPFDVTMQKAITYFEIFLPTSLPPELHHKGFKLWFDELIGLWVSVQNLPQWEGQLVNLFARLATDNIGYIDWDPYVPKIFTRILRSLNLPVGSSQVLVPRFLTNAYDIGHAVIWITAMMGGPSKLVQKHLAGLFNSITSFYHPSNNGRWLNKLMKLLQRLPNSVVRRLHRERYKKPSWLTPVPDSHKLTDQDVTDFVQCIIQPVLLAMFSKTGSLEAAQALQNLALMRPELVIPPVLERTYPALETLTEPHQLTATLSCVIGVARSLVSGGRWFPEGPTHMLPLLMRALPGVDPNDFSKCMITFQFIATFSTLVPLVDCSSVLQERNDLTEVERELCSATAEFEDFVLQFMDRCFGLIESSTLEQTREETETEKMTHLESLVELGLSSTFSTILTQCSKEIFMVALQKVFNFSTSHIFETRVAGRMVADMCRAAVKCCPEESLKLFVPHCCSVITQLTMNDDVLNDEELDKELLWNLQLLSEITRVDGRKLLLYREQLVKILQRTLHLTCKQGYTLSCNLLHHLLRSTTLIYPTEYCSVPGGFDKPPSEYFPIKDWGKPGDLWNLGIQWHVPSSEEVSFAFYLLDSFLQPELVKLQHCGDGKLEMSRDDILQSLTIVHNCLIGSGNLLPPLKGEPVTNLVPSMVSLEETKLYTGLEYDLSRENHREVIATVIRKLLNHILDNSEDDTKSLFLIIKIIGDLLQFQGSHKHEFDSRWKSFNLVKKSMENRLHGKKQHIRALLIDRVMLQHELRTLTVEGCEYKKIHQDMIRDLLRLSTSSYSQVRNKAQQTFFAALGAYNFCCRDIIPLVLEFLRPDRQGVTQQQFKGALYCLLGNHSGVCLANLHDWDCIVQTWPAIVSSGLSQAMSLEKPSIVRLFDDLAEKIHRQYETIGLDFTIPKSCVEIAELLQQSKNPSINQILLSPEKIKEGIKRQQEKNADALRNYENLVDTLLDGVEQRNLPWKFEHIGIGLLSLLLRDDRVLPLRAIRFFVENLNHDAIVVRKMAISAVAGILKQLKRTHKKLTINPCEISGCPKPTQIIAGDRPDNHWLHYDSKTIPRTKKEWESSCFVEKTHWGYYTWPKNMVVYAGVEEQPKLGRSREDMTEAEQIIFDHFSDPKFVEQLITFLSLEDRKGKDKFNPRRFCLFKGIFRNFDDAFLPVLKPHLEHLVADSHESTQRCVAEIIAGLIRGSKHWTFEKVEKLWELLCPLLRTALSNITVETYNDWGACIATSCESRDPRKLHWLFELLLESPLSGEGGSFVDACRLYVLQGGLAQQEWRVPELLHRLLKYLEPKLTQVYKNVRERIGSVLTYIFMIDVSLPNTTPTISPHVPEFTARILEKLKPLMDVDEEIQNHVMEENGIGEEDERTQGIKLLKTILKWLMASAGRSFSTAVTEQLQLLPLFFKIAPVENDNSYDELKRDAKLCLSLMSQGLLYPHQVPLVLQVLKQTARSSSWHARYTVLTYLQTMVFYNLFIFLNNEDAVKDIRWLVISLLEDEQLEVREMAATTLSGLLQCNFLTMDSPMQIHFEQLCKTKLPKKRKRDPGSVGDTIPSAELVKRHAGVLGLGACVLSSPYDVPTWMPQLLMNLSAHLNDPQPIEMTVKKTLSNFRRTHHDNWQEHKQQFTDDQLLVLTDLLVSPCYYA

- apparent KD of the first PA200 binding event [1]: 40 nM
- apparent KD of the second PA200 binding event [1]: 150 nM
- apparent KD of the first PA200 binding event [2]: 40 nM
- apparent KD of the second PA200 binding event [2]: 150 nM
Molecule: recombinantly expressed and purified human PA200 (from UniProt Q14997 1-1843) (natural protein)

Molecule: Cc1cc(=O)oc2cc(NC(=O)[C@H](Cc3ccc(O)cc3)NC(=O)[C@@H](NC(=O)[C@H](CC(C)C)NC(=O)[C@H](CC(C)C)NC(=O)CCC(=O)O)C(C)C)ccc12 [Suc-LLVY-AMC] (Suc-LLVY-{AMC})
- fluorogenic AMC release [3]: the baseline CT-L and T-L activities of the i20S and s20S were similar
- fluorogenic AMC release [4]: the baseline CT-L and T-L activities of the i20S and s20S were similar

- stoichiometry N [5]: 2
B1: recombinantly expressed and purified human PA200, Q14997 1-1843 (natural protein)
chain: T3 chain
